Results as given in patent publication US8058034B2, “Mutated D-aminotransferase and method for producing optically active glutamic acid derivatives using the same” (Ajinomoto Co., Inc., priority 2002, dated 2011).

Assays:
[1] = Stability of IHOG in amination reaction solution with no microbial cell addition; type: physicochemical; details: 300 mM 4R,S-IHOG, pH 8.3, 37° C., no cells
Method: Another reason therefor would be instability of IHOG, the material for producing monatin, in a certain pH. In order to test stability of IHOG in the amination reaction of IHOG, the present inventors measured a change of IHOG concentration with time in an amination reaction solution of IHOG with no microbial cell addition. The reaction was performed by shaking a test tube containing 1 ml of reaction solution composed of 100 mM potassium phosphate buffer (pH 8.3), 300 mM 4R,S-IHOG, 600 mM DL-Ala and 1 mM pyridoxal-5′-phosphate at 37° C. for 40 hours. As a result, a residual ratio of 4R,S-IHOG was decreased to 81% after 16 hours, 70% after 24 hours and 57% after 40 hours, respectively. […] It is presumed that this phenomenon is due to a decomposition reaction where IHOG is decomposed into 3-indole-pyruvic acid and pyruvic acid and a cyclization reaction of IHOG, to consume IHOG in the reaction solution before being converted to monatin. That is, the reaction catalyzed by the D-aminotransferase derived from the genus Bacillus or Paenibacillus is not sufficiently fast, and a part of IHOG becomes unavailable for the amination due to the decomposition and the cyclization before the amination. This is thought to be one reason why (2R,4R) monatin can not be efficiently produced.

[2] = DAT activity of mutated BMDAT: transamination from D-alanine to α-ketoglutaric acid, coupled lactate dehydrogenase assay; type: biochemical, E. coli; details: 10 mM D-alanine, 10 mM α-ketoglutaric acid, pH 8.0, 30° C., cell sonicate supernatant
Method: E. coli transformants containing each plasmid with mutated BMDAT gene or pUCBMDAT were inoculated to 3 mL of casamino acid medium (0.5 g/dL of ammonium sulfate, 0.14 g/dL of KH2PO4, 0.23 g/dL of citrate 2Na.3H2O, 0.1 g/dL of MgSO4.7H2O, 2 mg/dl of FeSO4, 2 mg/dl of MnSO4, 2 mg/dL of pyridoxine hydrochloride, 0.1 mg/dL of thiamine, 1 g/dL of casamino acid, 0.3 g/dL of glycerol, pH 7.5) containing 0.1 mg/mL of ampicillin and 0.1 mM IPTG. The medium was then cultured with shaking at 37° C. for 16 hours. Cells were collected from 1 mL of the cultured medium, washed, suspended in 1 mL of 20 mM Tris-HCl (pH 7.6), and ultrasonically disrupted at 4° C. for 30 min. The sonicates were centrifuged at 15,000 rpm for 5 minutes, and the supernatant thereof was used as an enzyme catalyst. For the measurement of the D-aminotransferase activity (hereinbelow referred to as DAT activity), the transamination activity with D-alanine as the amino donor to α-ketoglutaric acid was enzymatically measured by analyzing pyruvic acid produced from D-alanine as the reaction proceeds.
Reaction conditions: 100 mM Tris-HCl (pH 8.0), 0.2 mM NADH, 0.1 mM pyridoxal-5′-phosphate, 5 U/mL lactate dehydrogenase, 10 mM D-alanine, 10 mM α-ketoglutaric acid, 30° C. A reduction of absorbance at 340 nm was measured.

[3] = PHOG amination reaction with mutated BMDAT-expressing E. coli (Example 10); type: biochemical; details: 100 mM 4R,S-PHOG, 16 hours
Method: (§1) Using a series of mutated BMDAT-expressing E. coli strains prepared in Example 9, 2R-monatin was produced from 4R,S-IHOG, and 2R-PHG was produced from 4R,S-PHOG. The microbial cells prepared by centrifuging 400 μL of the cultured medium were suspended in a reaction solution having the following composition.
Reaction solution of PHOG: 100 mM Tris-HCl (pH 8.0), 100 mM 4R,S-PHOG, 400 mM D-alanine, 1 mM pyridoxal-5′-phosphate and 0.5% (v/v) toluene
(§2) The suspension was incubated at 30° C. for 16 hours, and then the amount of 2R-monatin and 2R-PHG thus produced were analyzed.

[4] = PHOG amination with washed cells of BMDAT-expressing E. coli (Example 3); type: biochemical; details: 50 mM PHOG, 200 mM D-alanine, pH 8.0
Method: (§3) E. coli transformants with pUCBMDAT were inoculated to 3 mL of LB medium (1 g/dL of bacto tryptone, 0.5 g/dL of yeast extract and 1 g/dL of NaCl) containing 0.1 mg/mL of ampicillin and 0.1 mM isopropyl-1-thio-β-D-galactopyranoside (IPTG). The medium was then cultured with shaking at 37° C. for 16 hours. Cells were collected from the cultured medium and washed to prepare cells of the BMDAT-expressing E. coli.
The reaction was also performed in a reaction liquid composed of 100 mM Tris-HCl (pH 8.0), 50 mM PHOG, 200 mM D-alanine, 1 mM pyridoxal-5′-phosphate and 0.5% (v/v) toluene. The amount of 2R-PHG thus produced after the incubation was determined. As a result, 17.1 mM of (2R,4S)-PHG and 19.2 mM of (2R,4R)-PHG were produced.

[5] = IHOG amination with washed cells of BMDAT-expressing E. coli (Example 3); type: biochemical; details: 50 mM IHOG, 200 mM D-alanine, pH 8.0, 33° C., 16 hours, cells 2% (w/v)
Method: as §3
The microbial cells prepared in (1) above were suspended at 2% (w/v) in 1 mL of a reaction liquid composed of 100 mM Tris-HCl (pH 8.0), 50 mM IHOG, 200 mM D-alanine, 1 mM pyridoxal-5′-phosphate and 0.5% (v/v) toluene. The suspension was then incubated with shaking at 33° C. for 16 hours, and the amount of 2R-monatin thus produced was determined. As a result, 16.4 mM of (2R,4S)-monatin and 17.0 mM of (2R,4R)-monatin were produced.

[6] = Amination reaction of PHOG with mutated BMDAT-expressing E. coli (Example 5); type: biochemical; details: 50 mM 4R,S-PHOG, 16 hours
Method: (§4) E. coli transformants containing each plasmid with mutated BMDAT gene or pUCBMDAT were inoculated to 3 mL of LB medium (1 g/dL of bacto tryptone, 0.5 g/dL of yeast extract and 1 g/dL of NaCl) containing 0.1 mg/mL of ampicillin and 0.1 mM isopropyl-1-thio-β-D-galactopyranoside (IPTG). The medium was then cultured with shaking at 37° C. for 16 hours. Cells were harvested from the cultured medium and washed Expression of each mutated BMDAT was confirmed with SDS-PAGE. Cells harvested form 250 μL of the cultured broth were resuspended in 500 μL of an SDS-PAGE sample buffer and boiled for 10 minutes for cell lysis and denaturation. 5 to 10 μL of the supernatant obtained by centrifugation (10,000×g, 10 min.) was subjected to SDS-PAGE.
as §1, with “Example 4 as a catalyst,” for “Example 9,”, “cells collected” for “cells prepared”
Reaction solution of PHOG: 100 mM Tris-HCl (pH 8.0), 50 mM 4R,S-PHOG, 200 mM D-alanine, 1 mM pyridoxal-5′-phosphate and 0.5% (v/v) toluene
(§5) The suspension was incubated at 30° C. for 16 hours, and then the amount of 2R-monatin and 2R-PHG thus produced were determined.

[7] = Amination reaction of IHOG with mutated BMDAT-expressing E. coli (Example 5); type: biochemical; details: 50 mM 4R,S-IHOG, 16 hours
Method: as §4
as §1, with “Example 4 as a catalyst,” for “Example 9,”, “cells collected” for “cells prepared”
(§6) Reaction solution of IHOG: 100 mM Tris-HCl (pH 8.0), 50 mM 4R,S-IHOG, 200 mM D-alanine, 1 mM pyridoxal-5′-phosphate and 0.5% (v/v) toluene
as §5

[8] = IHOG amination reaction with mutated BMDAT-expressing E. coli (Example 10); type: biochemical; details: 100 mM 4R,S-IHOG, 16 hours
Method: as §1
Reaction solution of IHOG: 100 mM Tris-HCl (pH 8.0), 100 mM 4R,S-IHOG, 400 mM D-alanine, 1 mM pyridoxal-5′-phosphate and 0.5% (v/v) toluene
as §2

[9] = IHOG amination reaction with mutated BSDAT-expressing E. coli (Example 8); type: biochemical; details: 50 mM 4R,S-IHOG, 16 hours
Method: E. coli transformants containing each plasmid with mutated BSDAT gene or pUCBSDAT were inoculated to 3 mL of LB medium (1 g/dL of bacto tryptone, 0.5 g/dL of yeast extract and 1 g/dL of NaCl) containing 0.1 mg/mL of ampicillin and 0.1 mM isopropyl-1-thio-β-D-galactopyranoside (IPTG). The medium was then cultured with shaking at 37° C. for 16 hours. Cells were collected from the cultured medium and washed to prepare the BSDAT-expressing E. coli. Expression of each mutated BSDAT was confirmed by SDS-PAGE. The cells harvested from 250 μL of the cultured medium were resuspended in 500 μL of an SDS-PAGE sample buffer and boiled for 10 minutes for cell lysis and denaturation, and 5 to 10 μL of the supernatant obtained by centrifugation (10,000×g, 10 min.) was subjected to SDS-PAGE.
Using a series of mutated BSDAT-expressing E. coli strains prepared in Example 7, 2R-monatin was produced from 4R,S-IHOG. The microbial cells prepared by centrifuging 400 μL of the cultured medium were suspended in the reaction solution having the following composition.
as §6
The suspension was incubated at 30° C. for 16 hours, and then the amount of 2R-monatin thus produced was analyzed.

[10] = IHOG amination with washed cells of BSDAT-expressing E. coli (Example 6); type: biochemical; details: 50 mM IHOG, 200 mM D-alanine, pH 7.6, 30° C., 18 hours, cells 5% (w/v)
Method: E. coli transformants containing pUCBSDAT were cultivated in the LB medium (1 g/dL of bacto tryptone, 0.5 g/dL of yeast extract and 1 g/dL of NaCl) containing 0.1 mg/mL of ampicillin at 37° C. for 16 hours. Subsequently, 1 mL of thus obtained broth was added to a 500 mL Sakaguchi flask in which contains 50 mL of the LB medium, and main cultivation was performed at 37° C. After 2.5 hours of cultivation, isopropyl-1-thio-β-D-galactopyranoside (IPTG) was added thereto at a final concentration of 1 mM, and the cultivation was performed for additional 4 hours. Cells were harvested from the cultured medium and washed to prepare the cells of BSDAT-expressing E. coli.
The microbial cells prepared in the above (2) were suspended at 5% (w/v) in 1 mL of a reaction liquid composed of 100 mM Tris-HCl (pH 7.6), 50 mM IHOG, 200 mM D-alanine, 1 mM pyridoxal-5′-phosphate and 0.5% (v/v) toluene. One ml of the suspension was then transferred to a 10 mL test tube, and incubated with shaking at 30° C. for 18 hours. After the incubation, the amount of 2R-monatin thus produced was determined. As a result, 13.8 mM (2R,4R)-monatin and 12.7 mM (2R,4S)-monatin were produced from IHOG.

[11] = 400 mM D-alanine, pH 8.0, 30° C.
[12] = 200 mM D-alanine, pH 8.0, 30° C.

O=C(O)C(=O)CC(O)(Cc1c[nH]c2ccccc12)C(=O)O (racemic) [4R,S-IHOG, 4-(indol-3-ylmethyl)-4-hydroxy-2-oxoglutaric acid]
residual ratio of 4R,S-IHOG ([1]; after 16 hours): 81%
residual ratio of 4R,S-IHOG ([1]; after 24 hours): 70%

B1: pUCBMDAT: wild-type D-aminotransferase derived from Bacillus macerans AJ1617 (SEQ ID NO:2), expressed in E. coli (protein)
chain: MAYSLWNDQIVEEGSIAISPEDRGYQFGDGIYEVIKVYNGNMFTAQEHIDRFYASAEKIRLVIPYTKDVLHKLLHELIEKNNLETGHVYFQITRGANSRNHVFPDASIPAVLTGNVKAGERAYENFEKGVKATFVEDIRWLRCDIKSLNLLGAVLAKQEAAEKGCYEAILHRGDIVTECSSANVYGIKDGKLYTHPANNFILNGITRQVILKCAEEINLPVIEEPMTKADLLTMDEIIVSSVSSEVTPVIDVDGNQIGAGVPGEWTRQLQQSFEAKLPLSMNTK
modifications: Bacillus macerans
DAT activity [2]: 6.3 U/mg
2R,4R-PHG [3, 11]: 34.2 mM
2R,4S-PHG [3, 11]: 34.9 mM
4R selectivity ([3]; 30° C.): 49%
(2R,4R)-PHG produced [4]: 19.2 mM
(2R,4S)-PHG produced [4]: 17.1 mM
(2R,4R)-monatin produced [5]: 17.0 mM
(2R,4S)-monatin produced [5]: 16.4 mM
2R,4R-PHG [6, 12]: 19.2 mM
2R,4S-PHG [6, 12]: 17.1 mM
4R selectivity (ratio of (2R,4R) isomer out of total 2R-PHG) ([6]; 30° C.): 53%
2R,4R-monatin [7, 12]: 17.0 mM
2R,4S-monatin [7, 12]: 16.4 mM
4R selectivity (ratio of (2R,4R) isomer out of total 2R-monatin) ([7]; 30° C.): 51%
2R,4R-monatin [8, 11]: 19.1 mM
2R,4S-monatin [8, 11]: 18.3 mM
4R selectivity ([8]; 30° C.): 51%

B2: PUCBSDAT: wild-type D-transaminase derived from Bacillus sphaericus ATCC 10208 (SEQ ID NO:4), expressed in E. coli (protein, listed as Bacillus sphaericus)
chain: MAYSLWNDQIVEEGSITISPEDRGYQFGDGIYEVIKVYNGHMFTAQEHIDRFYASAEKIRLVIPYTKDVLHKLLHDLIEKNNLNTGHVYFQITRGTTSRNHIFPDASVPAVLTGNVKTGERSIENFEKGVKATLVEDVRWLRCDIKSLNLLGAVLAKQEASEKGCYEAILHRGDIITECSSANVYGIKDGKLYTHPANNYILNGITRQVILKCAAEINLPVIEEPMTKGDLLTMDEIIVSSVSSEVTPVIDVDGQQIGAGVPGEWTRKLQKAFEAKLPISINA
2R,4R-monatin [9, 12]: 13.8 mM
2R,4S-monatin [9, 12]: 12.7 mM
4R selectivity ([9]; 30° C.): 52%
(2R,4R)-monatin produced [10]: 13.8 mM
(2R,4S)-monatin produced [10]: 12.7 mM
